PMC6497670

Legend:
Assay in all cases: PELDOR/DEER EPR; MTSSL-labelled protein reconstituted in soybean phosphatidylcholine liposomes (1:20 protein/lipid), 50 mM KPi pH 8.0, spin concentration 80-130 µM, 20% deuterated glycerol, Q-band, 50 K; monomer to dimer
[1] = target: SLC26Dg V367R1 (single-cysteine mutant V367C labelled with MTSSL) (Deinococcus geothermalis)
[2] = target: SLC26Dg L385R1 (single-cysteine mutant L385C labelled with MTSSL) (Deinococcus geothermalis)
[3] = target: SLC26Dg K353R1 (single-cysteine mutant K353C labelled with MTSSL) (Deinococcus geothermalis)

## SLC26Dg V367R1 (single-cysteine mutant V367C labelled with MTSSL) (natural protein)
[1]
  stoichiometry N: 2

## SLC26Dg L385R1 (single-cysteine mutant L385C labelled with MTSSL) (natural protein)
[2]
  stoichiometry N: 2

## SLC26Dg K353R1 (single-cysteine mutant K353C labelled with MTSSL) (natural protein)
[3]
  stoichiometry N: 2
